Measurements as given in paper PMC9721465, “PFK2/FBPase-2 is a potential target for metabolic engineering in the filamentous fungus Myceliophthora thermophila” (Frontiers in Microbiology, 2022).

What was measured:
[1] = substrate: Nc1ncnc2c1ncn2[C@@H]1O[C@H](COP(=O)(O)OP(=O)(O)OP(=O)(O)O)[C@@H](O)[C@H]1O; assay: PFK2 assay, fru-2,6-P2 quantified by activation of potato PPi-PFK, spectrophotometric; format: biochemical, Thermothelomyces thermophilus; conditions: co-substrate F6P
Source text: PFK2 assay, fru-2,6-P2 quantified by activation of potato PPi-PFK, spectrophotometric on PFK2-C

[2] = substrate: O=P(O)(O)OC[C@H]1O[C@@](CO)(OP(=O)(O)O)[C@@H](O)[C@@H]1O; assay: FBPase-2 assay, product/substrate by LC-MS/MS; format: biochemical, Thermothelomyces thermophilus; conditions: pH 7, 30 °C, 1 mM ATP, 2 mM MgCl2, 5 mM KPi
Source text: FBPase-2 assay, product/substrate by LC-MS/MS on PFK2-A

Protein | Km [1] [µM] | Km [2] [µM]
PFK2-C (Thermothelomyces thermophilus ATCC 42464) (protein, pET28a expression in E. coli (BL21/Rosetta DE3), His-Trap purified; cDNA-encoded) MPEPLQPSFFHVAASGSDPRPSESACQREDAAVAPQSSSLTLRKLAMSHRMGATASDPSSPTIQAIGDSHHGAETHPLHSVLPSPALTNALKESLRTAGAGQSGPPIGVPNGLHFDSPYSRSISSTAPGSPRIPPVRQNSGSHTPRIRPHATTLNIPGMTRSRASPDGRIPDRDVAAKLVIIMVGLPARGKSYITKKIQRYLSWQQHNTKIFNVGNRRRIAAGMVNPTDASPTNAANGHDVPSQAATILSKGTKGPDIVVEEPTALDLNKGKPVPKMDQSAAFFDPKNEAAAKLREQVALDTLDELLTYLLHQGGAVGILDATNSTIQRRKLLVERIKAREPKLGILFIESVCHDQNLLEANMRLKLFGPDYKDQDPHMALEDFKKRVAAYESAYEPLGKWEEDNDLQYIQMIDVGRKIIQHRLRGFLSGGIVSYLTTFNLSPRQIWITRHGQSEDNRAHRLGGDSELTERGHYYGQALYNFITYKRKEWLIQQKNKIASSNFPPQPGDNTPPYPELFQELDDKNFCVWTSMLKRSIETAEYFEADDDYDVKAWEMLNEMNAGAFEGMTYEEIAEKYPEEFEKRARDKLQYIYPGLGGEGYLQIISRLRDMVREIERITDHVLIIGHRSVCRVLMAYFMDLTRDDIADLDMPLGMLYAIEPKPYGIEFHAYKYNEETFWFDELPNYKPRKTVDRNS | 940 ± 150 | 
PFK2-A (Thermothelomyces thermophilus ATCC 42464) (protein, pET32a expression in E. coli Rosetta (DE3), His-Trap purified; cDNA-encoded) MAPKINGTGVMPEDTRICVVMVGLPARGKSYIAQRAQRYLKWLSIPAKTFNVGNYRRKDAPHPSADFFDTNNAEGERQRRAAANAAVTDMIQWFKTGGVVGILDATNSTKERRKWVLERLSKEGIEVLFVESKCDDEELIMANIRDVKTTSPDYQGQDPEQAALDFRERIRHYEKVYKSINDDNDEDHLTYLKIMNVGKKVFINRIQDYLQSRVVYFLMNLHIRPRSVWLSRHGESEYNLEGRIGGDSLLSHRGEEYARKLPELVRQSVGSDRPLTVWTSTLKRTIATARHLPKHYNQLQWKALDELDAGVCDGLTYQEIADQYPEDFQARDEDKYNYRYRGGESYRDVVIRLEPIIMELERSENILIISHQAVIRCIYAYFMQKPQEESPWVPVPLHTLIKLTPRAYDTLVEKYDAKIKAVSTWRGKGSTAKHEDPTPEGGI |  | 3810 ± 220
